These results are taken from PMC3649970, “A Unique Spumavirus Gag N-terminal Domain with Functional Properties of Orthoretroviral Matrix and Capsid” (PLoS Pathogens, 2013).

B1: PFV-Gag-NtD (amino terminal domain of Prototypic Foamy Virus Gag, residues 1-179) [Prototypic foamy virus (PFV)] / PFV Env leader peptide residues 1-20 [Prototypic foamy virus (PFV)] (parent)
chain 1: MASGSNVEEYELDVEALVVILRDRNIPRNPLHGEVIGLRLTEGWWGQIERFQMVRLILQDDDNEPLQRPRYEVIQRAVNPHTMFMISGPLAELQLAFQDLDLPEGPLRFGPLANGHYVQGDPYSSSYRPVTMAETAQMTRDELEDVLNTQSEIEIQMINLLELYEVETRALRRQLAERS
chain 2: MAPPMTLQQWIIWKKMNKAH

This assay covers variants of B1. The experiment in a line: sedimentation velocity analytical ultracentrifugation. Conditions: with PFV Env leader peptide residues 1-20 [Prototypic foamy virus (PFV)]; 75 µM equimolar mixtures of Gag-NtDs with Env(1-20); read off a plot.
Regarding chain 1 MASGSNVEEYELDSEALSVILRDRNIPRNPLHGEVIGLRLTEGWWGQIERFQMVRLILQDDDNEPLQRPRYEVIQRAVNPHTMFMISGPLAELQLAFQDLDLPEGPLRFGPLANGHYVQGDPYSSSYRPVTMAETAQMTRDELEDVLNTQSEIEIQMINLLELYEVETRALRRQLAERS [chain 1 V14S V18S], the Ka is 0.18 10^5 M^-1.
Take chain 1 MASGSNVEEYELDVEASVVILRDRNIPRNPLHGEVIGLRLTEGWWGQIERFQMVRLILQDDDNEPLQRPRYEVIQRAVNPHTMFMISGPLAELQLAFQDLDLPEGPLRFGPLANGHYVQGDPYSSSYRPVTMAETAQMTRDELEDVLNTQSEIEIQMINLLELYEVETRALRRQLAERS [chain 1 L17S]: the Ka was 0.71 10^5 M^-1.
For chain 1 MASGSNVEEYELDVEALSVISRDRNIPRNPLHGEVIGLRLTEGWWGQIERFQMVRLILQDDDNEPLQRPRYEVIQRAVNPHTMFMISGPLAELQLAFQDLDLPEGPLRFGPLANGHYVQGDPYSSSYRPVTMAETAQMTRDELEDVLNTQSEIEIQMINLLELYEVETRALRRQLAERS [chain 1 V18S L21S], the Ka is 0.16 10^5 M^-1.
For chain 1 MASGSNVEEYELDSEALVVILRDRNIPRNPLHGEVIGLRLTEGWWGQIERFQMVRLILQDDDNEPLQRPRYEVIQRAVNPHTMFMISGPLAELQLAFQDLDLPEGPLRFGPLANGHYVQGDPYSSSYRPVTMAETAQMTRDELEDVLNTQSEIEIQMINLLELYEVETRALRRQLAERS [chain 1 V14S] the value was 0.51 10^5 M^-1; for chain 1 MASGSNVEEYELDVEALSVILRDRNIPRNPLHGEVIGLRLTEGWWGQIERFQMVRLILQDDDNEPLQRPRYEVIQRAVNPHTMFMISGPLAELQLAFQDLDLPEGPLRFGPLANGHYVQGDPYSSSYRPVTMAETAQMTRDELEDVLNTQSEIEIQMINLLELYEVETRALRRQLAERS [chain 1 V18S], 0.6 10^5 M^-1; for chain 1 MASGSNVEEYELDSEALVVISRDRNIPRNPLHGEVIGLRLTEGWWGQIERFQMVRLILQDDDNEPLQRPRYEVIQRAVNPHTMFMISGPLAELQLAFQDLDLPEGPLRFGPLANGHYVQGDPYSSSYRPVTMAETAQMTRDELEDVLNTQSEIEIQMINLLELYEVETRALRRQLAERS [chain 1 V14S L21S], 0.07 10^5 M^-1.
Consider chain 1 MASGSNVEEYELDVEALVVISRDRNIPRNPLHGEVIGLRLTEGWWGQIERFQMVRLILQDDDNEPLQRPRYEVIQRAVNPHTMFMISGPLAELQLAFQDLDLPEGPLRFGPLANGHYVQGDPYSSSYRPVTMAETAQMTRDELEDVLNTQSEIEIQMINLLELYEVETRALRRQLAERS [chain 1 L21S], for which the Ka is 0.29 10^5 M^-1.
Turning to chain 1 MASGSNVEEYELDVEALVVINRDRNIPRNPLHGEVIGLRLTEGWWGQIERFQMVRLILQDDDNEPLQRPRYEVIQRAVNPHTMFMISGPLAELQLAFQDLDLPEGPLRFGPLANGHYVQGDPYSSSYRPVTMAETAQMTRDELEDVLNTQSEIEIQMINLLELYEVETRALRRQLAERS [chain 1 L21N], the Ka is 0.3 10^5 M^-1.
The same measure for chain 1 MASGSNVEEYELDVEALVVILRDRNIPRQPLHGEVIGLRLTEGWWGQIERFQMVRLILQDDDNEPLQRPRYEVIQRAVNPHTMFMISGPLAELQLAFQDLDLPEGPLRFGPLANGHYVQGDPYSSSYRPVTMAETAQMTRDELEDVLNTQSEIEIQMINLLELYEVETRALRRQLAERS [chain 1 N29Q]: 1.4 10^5 M^-1.
